One data set concerns the target CLPB^isoform1 (human). Put plainly: cryo-EM 2D classification.
The target in data set [1] is CLPB-NBD (NBD-only variant, N-terminal ANK domain truncated) (human) (UniProt Q9H078). Briefly: cryo-EM 2D classification.
In a further data set the target is CLPB-NBD^E425Q (human) (UniProt Q9H078). Put plainly: cryo-EM structure.
The data set “cryo-EM structure” concerns the molecule itself. Put plainly: cryo-EM structure.
Data set [2] concerns the molecule itself. Briefly: SEC + other: negative-staining EM.
The data set “SEC” concerns the molecule itself. Put plainly: SEC. (In general: SEC sorts molecules by how far they enter the pores of the column.)

Values joined by “and” are separate entries in the source; they are usually repeats but may differ in a detail not shown here. Equal entries are not always repeated.

The molecule CLPB^isoform1 (natural protein) had a stoichiometry N with CLPB^isoform1 (human) of 14.

“CLPB-NBD (NBD-only variant, N-terminal ANK domain truncated) (from UniProt Q9H078-2 1-677) (domain or fragment)”: the stoichiometry N in data set [1] is 6 and 7.

On to “CLPB-NBD^E425Q (from UniProt Q9H078-2 1-677) (domain or fragment)”, for which, in the data set with CLPB-NBD^E425Q (human), the stoichiometry N is 6 and 7 and 9.

B1: CLPB-N127 (human CLPB isoform 2 starting from the PARL cleavage site) (natural protein)
chain: YSKSPSNKDAALLEAARANNMQEVSRLLSEGADVNAKHRLGWTALMVAAINRNNSVVQVLLAAGADPNLGDDFSSVYKTAKEQGIHSLEVLITREDDFNNRLNNRASFKGCTALHYAVLADDYRTVKELLDGGANPLQRNEMGHTPLDYAREGEVMKLLRTSEAKYQEKQRKREAEERRRFPLEQRLKEHIIGQESAIATVGAAIRRKENGWYDEEHPLVFLFLGSSGIGKTELAKQTAKYMHKDAKKGFIRLDMSEFQERHEVAKFIGSPPGYVGHEEGGQLTKKLKQCPNAVVLFDEVDKAHPDVLTIMLQLFDEGRLTDGKGKTIDCKDAIFIMTSNVASDEIAQHALQLRQEALEMSRNRIAENLGDVQISDKITISKNFKENVIRPILKAHFRRDEFLGRINEIVYFLPFCHSELIQLVNKELNFWAKRAKQRHNITLLWDREVADVLVDGYNVHYGARSIKHEVERRVVNQLAAAYEQDLLPGGCTLRITVEDSDKQLLKSPELPSPQAEKRLPKLRLEIIDKDSKTRRLDIRAPLHPEKVCNTI
In the case of B1, the “stoichiometry N” value in “cryo-EM structure” worked out at 14.

B2: CLPB^R227E (natural protein)
chain: YSKSPSNKDAALLEAARANNMQEVSRLLSEGADVNAKHRLGWTALMVAAINRNNSVVQVLLAAGADPNLGDDFSSVYKTAKEQGIHSLEVLITREDDFNNELNNRASFKGCTALHYAVLADDYRTVKELLDGGANPLQRNEMGHTPLDYAREGEVMKLLRTSEAKYQEKQRKREAEERRRFPLEQRLKEHIIGQESAIATVGAAIRRKENGWYDEEHPLVFLFLGSSGIGKTELAKQTAKYMHKDAKKGFIRLDMSEFQERHEVAKFIGSPPGYVGHEEGGQLTKKLKQCPNAVVLFDEVDKAHPDVLTIMLQLFDEGRLTDGKGKTIDCKDAIFIMTSNVASDEIAQHALQLRQEALEMSRNRIAENLGDVQISDKITISKNFKENVIRPILKAHFRRDEFLGRINEIVYFLPFCHSELIQLVNKELNFWAKRAKQRHNITLLWDREVADVLVDGYNVHYGARSIKHEVERRVVNQLAAAYEQDLLPGGCTLRITVEDSDKQLLKSPELPSPQAEKRLPKLRLEIIDKDSKTRRLDIRAPLHPEKVCNTI
Consider B2, for which, in data set [2], the binding result is recorded as “binds”.

B3: CLPB^E425Q (Walker B mutant of CLPB-N127) (natural protein)
chain: YSKSPSNKDAALLEAARANNMQEVSRLLSEGADVNAKHRLGWTALMVAAINRNNSVVQVLLAAGADPNLGDDFSSVYKTAKEQGIHSLEVLITREDDFNNRLNNRASFKGCTALHYAVLADDYRTVKELLDGGANPLQRNEMGHTPLDYAREGEVMKLLRTSEAKYQEKQRKREAEERRRFPLEQRLKEHIIGQESAIATVGAAIRRKENGWYDEEHPLVFLFLGSSGIGKTELAKQTAKYMHKDAKKGFIRLDMSEFQERHEVAKFIGSPPGYVGHEEGGQLTKKLKQCPNAVVLFDQVDKAHPDVLTIMLQLFDEGRLTDGKGKTIDCKDAIFIMTSNVASDEIAQHALQLRQEALEMSRNRIAENLGDVQISDKITISKNFKENVIRPILKAHFRRDEFLGRINEIVYFLPFCHSELIQLVNKELNFWAKRAKQRHNITLLWDREVADVLVDGYNVHYGARSIKHEVERRVVNQLAAAYEQDLLPGGCTLRITVEDSDKQLLKSPELPSPQAEKRLPKLRLEIIDKDSKTRRLDIRAPLHPEKVCNTI
B3: in the data set “cryo-EM structure”, the “stoichiometry N” value turned out to be 12.

B4: CLPB^R178E (natural protein)
chain: YSKSPSNKDAALLEAARANNMQEVSRLLSEGADVNAKHRLGWTALMVAAINENNSVVQVLLAAGADPNLGDDFSSVYKTAKEQGIHSLEVLITREDDFNNRLNNRASFKGCTALHYAVLADDYRTVKELLDGGANPLQRNEMGHTPLDYAREGEVMKLLRTSEAKYQEKQRKREAEERRRFPLEQRLKEHIIGQESAIATVGAAIRRKENGWYDEEHPLVFLFLGSSGIGKTELAKQTAKYMHKDAKKGFIRLDMSEFQERHEVAKFIGSPPGYVGHEEGGQLTKKLKQCPNAVVLFDEVDKAHPDVLTIMLQLFDEGRLTDGKGKTIDCKDAIFIMTSNVASDEIAQHALQLRQEALEMSRNRIAENLGDVQISDKITISKNFKENVIRPILKAHFRRDEFLGRINEIVYFLPFCHSELIQLVNKELNFWAKRAKQRHNITLLWDREVADVLVDGYNVHYGARSIKHEVERRVVNQLAAAYEQDLLPGGCTLRITVEDSDKQLLKSPELPSPQAEKRLPKLRLEIIDKDSKTRRLDIRAPLHPEKVCNTI
Regarding B4, the binding result in data set [2] is on record as “binds”.

B5: CLPB^Δ201-232 (natural protein)
chain: YSKSPSNKDAALLEAARANNMQEVSRLLSEGADVNAKHRLGWTALMVAAINRNNSVVQVLLAAGADPNLGDDFSSFKGCTALHYAVLADDYRTVKELLDGGANPLQRNEMGHTPLDYAREGEVMKLLRTSEAKYQEKQRKREAEERRRFPLEQRLKEHIIGQESAIATVGAAIRRKENGWYDEEHPLVFLFLGSSGIGKTELAKQTAKYMHKDAKKGFIRLDMSEFQERHEVAKFIGSPPGYVGHEEGGQLTKKLKQCPNAVVLFDEVDKAHPDVLTIMLQLFDEGRLTDGKGKTIDCKDAIFIMTSNVASDEIAQHALQLRQEALEMSRNRIAENLGDVQISDKITISKNFKENVIRPILKAHFRRDEFLGRINEIVYFLPFCHSELIQLVNKELNFWAKRAKQRHNITLLWDREVADVLVDGYNVHYGARSIKHEVERRVVNQLAAAYEQDLLPGGCTLRITVEDSDKQLLKSPELPSPQAEKRLPKLRLEIIDKDSKTRRLDIRAPLHPEKVCNTI
As for B5, the binding result in “SEC” was “binds”.

One may read the stoichiometry N as a count of units in the complex or per binding partner.

These data come from publication doi:10.1101/2022.03.10.483744 (bioRxiv, 2022).
